Data from PMC7679444.

Molecular target: GST-HA-ATG16L1(231–607), Q676U5
Assay: peptide microarray
Conditions: chain shown with the change; 800, 600, 400 nM; n = 9; read off a plot

Chain of GST-HA-ATG16L1(231–607), Q676U5 (Q676U5 231-607): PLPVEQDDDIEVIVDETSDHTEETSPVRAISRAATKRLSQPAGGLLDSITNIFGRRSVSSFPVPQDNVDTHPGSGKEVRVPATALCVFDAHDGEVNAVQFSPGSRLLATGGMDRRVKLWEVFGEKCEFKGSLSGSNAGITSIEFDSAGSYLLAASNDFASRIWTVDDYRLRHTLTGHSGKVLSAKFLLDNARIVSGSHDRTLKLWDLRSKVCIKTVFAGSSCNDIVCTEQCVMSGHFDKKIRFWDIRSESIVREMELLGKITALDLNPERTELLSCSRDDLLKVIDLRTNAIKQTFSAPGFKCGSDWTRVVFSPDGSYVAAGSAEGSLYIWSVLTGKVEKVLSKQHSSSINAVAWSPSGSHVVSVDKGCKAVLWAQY

| percent of parent | Binder |
| --- | --- |
| 160 % WT | YEKLSIYGDL [TMEM59 peptide (residues 268–280), wild type, Q9BXS4 V269del; P270del; S271del] |
| 110 % WT | YVPSELYGDL [TMEM59 peptide (residues 268–280), wild type, Q9BXS4 K273del; S275del; I276del] |
